Measurements reported in the supplement of paper PMC7877785.
± gives the uncertainty stated by the source.

Assay: self-splicing fitness, log relative to wild type (ln ratio); higher = more splicing; Tetrahymena group I intron in knt gene, E. coli kanamycin selection, DiMSum; sequences stand for … in CUCUCU…GGAGGGAAAAGUUAUCAGGCAUGCACCUGGUAGCUAGUCUUUAAACCAAUAGAUUGCAUCGGUUUAAAAGGCAAGACCGUCAAAUUGCGGGAAAGGGGUCAACAGCCGUUCAGUACCAAGUCUCAGGGGAAACUUUGAGAUGGCCUUGCAAAGGGUAUGGUAAUAAGCUGACGGACAUGGUCCUAACCACGCAGCCAAGUCCUAAGUCAACAGAUCUUCUGUUGAUAUGGAUGCAGUUCACAGACUAAAUGUCGGUCGGGGAAGAUGUAUUCUUCUCAUAAGAUAUAGUCGGACCUCUCCUUAAUGGGAGCUAGCGGAUGAAGUGAUGCAACACUGGAGCCGCUGGGAACUAAUUUGUAUGCGAAAGUAUAUUGAUUAGUUUUGGAGUACUCGUGGUCG
In short: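 Pooled colonies went to amplicon sequencing on an Illumina HiSeq 2500 after six replicate transformations. The plates were LB agar with 100 μg/mL carbenicillin, 50 μM IPTG and 0.2% rhamnose, with or without 25 μg/mL kanamycin, incubated overnight at 37°C or 30°C. The E. coli BL21(DE3) library had all eight P1ex-region intron nucleotides randomised, the intron placed in the knt kanamycin-resistance gene on pET-22b(+). DiMSum fitness is the error-weighted combination of replicate fold changes, kanamycin against none, normalised to wild type.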

Sequence	self-splicing fitness (ln) (30 °C)	self-splicing fitness (ln) (37 °C)
UGCUAGCAAUAUUACGGACG	0.0612 ± 0.08	0.414 ± 0.099
UGCUAGCAAUAUUACGGCCC	-1.72 ± 0.23	-0.878 ± 0.32
UGCUAGCAAUAUUACGGGCA	-3.8 ± 0.25	-2.02 ± 0.19
UGCUAGCAAUAUUACGGUCC	-2.01 ± 0.19	0.11 ± 0.21
UGCUAGCAAUAUUACGGUCU	-0.539 ± 0.084	-0.14 ± 0.08
UGCUAGCAAUAUUACGGUUC	-2.49 ± 0.16	-1.69 ± 0.14
UGCUAGCAAUAUUACGUAAC	-3.31 ± 0.28	-1.84 ± 0.29
UGCUAGCAAUAUUACGUAGU	-3.35 ± 0.2	-2.71 ± 0.25
UGCUAGCAAUAUUACGUCGU	-2.15 ± 0.14	-3.03 ± 0.31
UGGAAGCAAUAUUACGAAAG	-1.72 ± 0.16	-0.893 ± 0.2
UGGAAGCAAUAUUACGAAGA	-2.23 ± 0.28	-1.01 ± 0.28
UGGAAGCAAUAUUACGACAG	-0.462 ± 0.13	-0.603 ± 0.19
UGGAAGCAAUAUUACGACAU	-2.825 ± 0.021	-1.92 ± 0.035
UGGAAGCAAUAUUACGACCA	-0.871 ± 0.18	-0.92 ± 0.21
UGGAAGCAAUAUUACGAGGU	-2.77 ± 0.42	-2.08 ± 0.4
UGGAAGCAAUAUUACGAGUA	-1.94 ± 0.22	-1.13 ± 0.17
UGGAAGCAAUAUUACGAUCU	-0.0165 ± 0.12	-0.454 ± 0.15
UGGAAGCAAUAUUACGAUGA	-0.768 ± 0.18	-0.0449 ± 0.17
UGGAAGCAAUAUUACGAUGC	-1.67 ± 0.25	-1.13 ± 0.31
UGGAAGCAAUAUUACGCACG	-0.874 ± 0.12	0.34 ± 0.15
UGGAAGCAAUAUUACGCAUA	-1.68 ± 0.17	-0.329 ± 0.14
UGGAAGCAAUAUUACGCUGG	-1.74 ± 0.12	-1.26 ± 0.14
UGGAAGCAAUAUUACGGCAA	-1.72 ± 0.39	0.0721 ± 0.21
UGGAAGCAAUAUUACGGUCG	-0.0238 ± 0.081	0.332 ± 0.11
UGGAAGCAAUAUUACGGUUU	-4.66 ± 0.34	-2.59 ± 0.21

Sequence	self-splicing fitness (ln) (30 °C)	self-splicing fitness (ln) (37 °C)
UGGAAGCAAUAUUACGUACG	-0.898 ± 0.11	0.202 ± 0.13
UGGAAGCAAUAUUACGUAGC	-2.29 ± 0.21	-0.661 ± 0.24
UGGAAGCAAUAUUACGUUAA	-0.681 ± 0.36	-0.67 ± 0.3
UGGAAGCAAUAUUACGUUUC	-2.56 ± 0.24	-2.82 ± 0.38
UGGCAGCAAUAUUACGAACG	-0.0867 ± 0.16	0.145 ± 0.2
UGGCAGCAAUAUUACGAAUU	-3.42 ± 0.21	-2.47 ± 0.22
UGGCAGCAAUAUUACGAUAG	-2.32 ± 0.098	-0.473 ± 0.094
UGGCAGCAAUAUUACGAUCU	-0.344 ± 0.11	-0.112 ± 0.11
UGGCAGCAAUAUUACGCAUA	-0.869 ± 0.096	-0.265 ± 0.1
UGGCAGCAAUAUUACGCCAU	-3.71 ± 0.25	–
UGGCAGCAAUAUUACGCGAC	-2.66 ± 0.35	-1.64 ± 0.44
UGGCAGCAAUAUUACGCGCG	-0.287 ± 0.064	0.0127 ± 0.089
UGGCAGCAAUAUUACGCGGA	-1.48 ± 0.098	-0.878 ± 0.095
UGGCAGCAAUAUUACGGAUC	-2.22 ± 0.24	-1.99 ± 0.46
UGGCAGCAAUAUUACGGCCC	-1.18 ± 0.15	-0.287 ± 0.21
UGGCAGCAAUAUUACGGGGC	-3.67 ± 0.47	-2.18 ± 0.4
UGGCAGCAAUAUUACGGUAU	-3.72 ± 0.24	-1.73 ± 0.17
UGGCAGCAAUAUUACGGUGU	-3.4 ± 0.14	-2.41 ± 0.16
UGGCAGCAAUAUUACGUAUG	-0.256 ± 0.068	-0.15 ± 0.092
UGGCAGCAAUAUUACGUCAA	-1.16 ± 0.099	-0.518 ± 0.09
UGGCAGCAAUAUUACGUCCU	-0.363 ± 0.11	0.0307 ± 0.15
UGGCAGCAAUAUUACGUCGA	-0.694 ± 0.04	0.401 ± 0.058
UGGCAGCAAUAUUACGUGGC	-3.92 ± 0.18	-2.72 ± 0.19
UGGCAGCAAUAUUACGUGGU	-2.84 ± 0.15	-2.99 ± 0.23
UGGCAGCAAUAUUACGUGUC	-3.85 ± 0.19	-2.17 ± 0.19

Sequence	self-splicing fitness (ln) (30 °C)	self-splicing fitness (ln) (37 °C)
UGGCAGCAAUAUUACGUGUG	-0.896 ± 0.043	-0.192 ± 0.057
UGGCAGCAAUAUUACGUUAA	-1.16 ± 0.084	-0.28 ± 0.084
UGGCAGCAAUAUUACGUUAC	-4.11 ± 0.46	-2.46 ± 0.25
UGGCAGCAAUAUUACGUUUA	-0.478 ± 0.084	0.426 ± 0.096
UGGCAGCAAUAUUACGUUUU	-2.85 ± 0.14	-0.527 ± 0.13
UGGGAGCAAUAUUACGAAAA	-2.22 ± 0.31	-2.16 ± 0.34
UGGGAGCAAUAUUACGAAGU	–	-1.21 ± 0.3
UGGGAGCAAUAUUACGACGG	-2.22 ± 0.26	-1.69 ± 0.39
UGGGAGCAAUAUUACGAUAA	-0.547 ± 0.44	–
UGGGAGCAAUAUUACGAUAG	-3.25 ± 0.32	–
UGGGAGCAAUAUUACGCAAG	-2.15 ± 0.36	–
UGGGAGCAAUAUUACGCCGG	-2.45 ± 0.23	-2.19 ± 0.31
UGGGAGCAAUAUUACGCGUU	-2.33 ± 0.28	-2.02 ± 0.44
UGGGAGCAAUAUUACGCUAU	-1.67 ± 0.29	-2.62 ± 0.38
UGGGAGCAAUAUUACGGACG	-1.52 ± 0.14	-0.236 ± 0.15
UGGGAGCAAUAUUACGGAGC	-3.98 ± 0.46	-1.65 ± 0.5
UGGGAGCAAUAUUACGGAUG	-3.69 ± 0.39	-1.14 ± 0.26
UGGGAGCAAUAUUACGGGAC	-4.71 ± 0.46	-2.7 ± 0.38
UGGGAGCAAUAUUACGGGAU	-3.11 ± 0.37	-2.17 ± 0.29
UGGGAGCAAUAUUACGGGUG	-3.33 ± 0.47	-0.981 ± 0.26
UGGGAGCAAUAUUACGUAAA	-1.97 ± 0.36	–
UGGGAGCAAUAUUACGUACG	-2.41 ± 0.26	-2.34 ± 0.21
UGGGAGCAAUAUUACGUAUA	–	-2.74 ± 0.35
UGGGAGCAAUAUUACGUCGU	-2.14 ± 0.2	-2 ± 0.46
UGGGAGCAAUAUUACGUCUU	-3.74 ± 0.35	-2.54 ± 0.3

Sequence	self-splicing fitness (ln) (30 °C)	self-splicing fitness (ln) (37 °C)
UGGGAGCAAUAUUACGUUAC	-2.73 ± 0.47	–
UGGUAGCAAUAUUACGACAC	-2.43 ± 0.32	-1.69 ± 0.18
UGGUAGCAAUAUUACGACAG	-0.598 ± 0.3	-0.713 ± 0.38
UGGUAGCAAUAUUACGAGAA	–	-1.11 ± 0.36
UGGUAGCAAUAUUACGAUAA	-1.45 ± 0.21	-0.6 ± 0.24
UGGUAGCAAUAUUACGAUCA	-0.00935 ± 0.1	0.325 ± 0.13
UGGUAGCAAUAUUACGAUCC	-0.523 ± 0.11	-0.731 ± 0.16
UGGUAGCAAUAUUACGCCUU	-0.729 ± 0.15	0.426 ± 0.18
UGGUAGCAAUAUUACGCUGC	-2.89 ± 0.31	-2.86 ± 0.4
UGGUAGCAAUAUUACGGAGC	–	-0.765 ± 0.31
UGGUAGCAAUAUUACGGCCA	-2.07 ± 0.3	-1.94 ± 0.45
UGGUAGCAAUAUUACGGCCC	-0.562 ± 0.18	-0.000115 ± 0.21
UGGUAGCAAUAUUACGGCGG	-0.708 ± 0.082	-0.0108 ± 0.1
UGGUAGCAAUAUUACGGGGU	-3.24 ± 0.43	–
UGGUAGCAAUAUUACGUGGU	-4.36 ± 0.28	-2.7 ± 0.36
UGGUAGCAAUAUUACGUUUA	-1.58 ± 0.11	-0.847 ± 0.1
UGUAAGCAAUAUUACGACAU	-1.44 ± 0.015	-0.831 ± 0.034
UGUAAGCAAUAUUACGACGA	-0.272 ± 0.12	-0.249 ± 0.11
UGUAAGCAAUAUUACGAGGA	-2.17 ± 0.36	-2.61 ± 0.34
UGUAAGCAAUAUUACGAUAA	-1.12 ± 0.1	0.257 ± 0.13
UGUAAGCAAUAUUACGAUCC	-1.49 ± 0.34	-0.943 ± 0.42
UGUAAGCAAUAUUACGAUUC	–	-2.35 ± 0.26
UGUAAGCAAUAUUACGCACU	-0.554 ± 0.094	-0.349 ± 0.12
UGUAAGCAAUAUUACGCCGA	-1.5 ± 0.14	-1.63 ± 0.18
